Reference: publication doi:10.1101/2020.01.04.893909 (bioRxiv, 2020)

Target: the molecule itself
Test: SEC

B1: S. cerevisiae homologue of GAP (Rna1), recombinant (natural protein, UniProt P11745 1-407, looked up)
chain: MATLHFVPQHEEEQVYSISGKALKLTTSDDIKPYLEELAALKTCTKLDLSGNTIGTEASEALAKCIAENTQVRESLVEVNFADLYTSRLVDEVVDSLKFLLPVLLKCPHLEIVNLSDNAFGLRTIELLEDYIAHAVNIKHLILSNNGMGPFAGERIGKALFHLAQNKKAASKPFLETFICGRNRLENGSAVYLALGLKSHSEGLKVVKLYQNGIRPKGVATLIHYGLQYLKNLEILDLQDNTFTKHASLILAKALPTWKDSLFELNLNDCLLKTAGSDEVFKVFTEVKFPNLHVLKFEYNEMAQETIEVSFLPAMEKGNLPELEKLEINGNRLDEDSDALDLLQSKFDDLEVDDFEEVDSEDEEGEDEEDEDEDEKLEEIETERLEKELLEVQVDDLAERLAETEIK
B1: binds.
